Results taken from the supplement of paper PMC9112550, “Optimization of the antimicrobial peptide Bac7 by deep mutational scanning” (BMC Biology, 2022).

Test system: Escherichia coli TOP10
Assay: shrunken log2 fold change of peptide-encoding DNA abundance (4.5 h post-induction vs induction); higher = less antimicrobial activity (less host growth inhibition)
Conditions: time post-induction: 4.5 h; library: site-saturation at positions 5, 18, 19, 20
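Also: peptides expressed intracellularly from a pBAD plasmid library in pooled LB shake-flask culture, induced with 0.3% L-arabinose, DNA abundance read by NGS, three biological replicates, DESeq2 with apeglm shrinkage.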

Question: Which “shrunken log2 fold change” value does the source give for RRIRQRPPRLPRPRPRPKWGPRP here?
Answer: The value was -0.0154.

Question: Which “shrunken log2 fold change” value does the source give for RRIRQRPPRLPRPRPRPKYEPRP here?
Answer: Its value is 0.0304.

Question: How did the “shrunken log2 fold change” value turn out when RRIRQRPPRLPRPRPRPLCIPRP was run?
Answer: Its value is -0.28.

Question: How did the “shrunken log2 fold change” value turn out when RRIRQRPPRLPRPRPRPLCQPRP was run?
Answer: Its value is -0.304.

Question: RRIRQRPPRLPRPRPRPLDIPRP was tested. Which “shrunken log2 fold change” value did it give?
Answer: Its value is -0.163.

Question: RRIRQRPPRLPRPRPRPLEEPRP was tested. Which “shrunken log2 fold change” value did it give?
Answer: The value was 0.275.

Question: With RRIRQRPPRLPRPRPRPLEWPRP as the sequence, how does the “shrunken log2 fold change” value read?
Answer: Its value is 0.0921.

Question: RRIRQRPPRLPRPRPRPLGDPRP was tested. Which “shrunken log2 fold change” value did it give?
Answer: Its value is 0.0938.

Question: RRIRQRPPRLPRPRPRPLKQPRP was tested. Which “shrunken log2 fold change” value did it give?
Answer: The value was -0.151.

Question: How did the “shrunken log2 fold change” value turn out when RRIRQRPPRLPRPRPRPLLDPRP was run?
Answer: Its value is 0.525.

Question: How did the “shrunken log2 fold change” value turn out when RRIRQRPPRLPRPRPRPLLMPRP was run?
Answer: Its value is 0.181.

Question: With RRIRQRPPRLPRPRPRPLMIPRP as the sequence, how does the “shrunken log2 fold change” value read?
Answer: Its value is -0.0458.

Question: For RRIRQRPPRLPRPRPRPLMRPRP, which “shrunken log2 fold change” value is on record?
Answer: Its value is 0.345.

Question: How did the “shrunken log2 fold change” value turn out when RRIRQRPPRLPRPRPRPLNAPRP was run?
Answer: The value was 0.0127.

Question: RRIRQRPPRLPRPRPRPLNDPRP was tested. Which “shrunken log2 fold change” value did it give?
Answer: The value was -0.277.

Question: For RRIRQRPPRLPRPRPRPLPEPRP, which “shrunken log2 fold change” value is on record?
Answer: The value was 0.39.

Question: With RRIRQRPPRLPRPRPRPLQDPRP as the sequence, how does the “shrunken log2 fold change” value read?
Answer: Its value is -0.0148.

Question: Which “shrunken log2 fold change” value does the source give for RRIRQRPPRLPRPRPRPLRLPRP here?
Answer: Its value is 0.655.

Question: For RRIRQRPPRLPRPRPRPLSFPRP, which “shrunken log2 fold change” value is on record?
Answer: The value was -0.415.

Question: Which “shrunken log2 fold change” value does the source give for RRIRQRPPRLPRPRPRPLSKPRP here?
Answer: Its value is -0.194.

Question: Which “shrunken log2 fold change” value does the source give for RRIRQRPPRLPRPRPRPLSMPRP here?
Answer: The value was -0.262.

Question: For RRIRQRPPRLPRPRPRPLSVPRP, which “shrunken log2 fold change” value is on record?
Answer: Its value is -0.539.

Question: How did the “shrunken log2 fold change” value turn out when RRIRQRPPRLPRPRPRPLTQPRP was run?
Answer: Its value is 0.0547.

Question: With RRIRQRPPRLPRPRPRPLVGPRP as the sequence, how does the “shrunken log2 fold change” value read?
Answer: Its value is 0.38.

Question: With RRIRQRPPRLPRPRPRPLVHPRP as the sequence, how does the “shrunken log2 fold change” value read?
Answer: The value was -0.203.

Question: Which “shrunken log2 fold change” value does the source give for RRIRQRPPRLPRPRPRPLWAPRP here?
Answer: Its value is 0.00344.

Question: With RRIRQRPPRLPRPRPRPMAEPRP as the sequence, how does the “shrunken log2 fold change” value read?
Answer: The value was 0.0238.

Question: Which “shrunken log2 fold change” value does the source give for RRIRQRPPRLPRPRPRPMDYPRP here?
Answer: Its value is -0.0062.

Question: How did the “shrunken log2 fold change” value turn out when RRIRQRPPRLPRPRPRPMEDPRP was run?
Answer: The value was -0.00192.

Question: RRIRQRPPRLPRPRPRPMEHPRP was tested. Which “shrunken log2 fold change” value did it give?
Answer: The value was 0.0112.

Question: RRIRQRPPRLPRPRPRPMEQPRP was tested. Which “shrunken log2 fold change” value did it give?
Answer: The value was -0.074.

Question: How did the “shrunken log2 fold change” value turn out when RRIRQRPPRLPRPRPRPMERPRP was run?
Answer: Its value is 0.301.

Question: Which “shrunken log2 fold change” value does the source give for RRIRQRPPRLPRPRPRPMGSPRP here?
Answer: Its value is -0.0869.

Question: RRIRQRPPRLPRPRPRPMHIPRP was tested. Which “shrunken log2 fold change” value did it give?
Answer: The value was -0.377.

Question: How did the “shrunken log2 fold change” value turn out when RRIRQRPPRLPRPRPRPMHWPRP was run?
Answer: The value was 0.0747.

Question: With RRIRQRPPRLPRPRPRPMIGPRP as the sequence, how does the “shrunken log2 fold change” value read?
Answer: The value was 0.0241.

Question: Which “shrunken log2 fold change” value does the source give for RRIRQRPPRLPRPRPRPMKKPRP here?
Answer: Its value is 0.0152.

Question: With RRIRQRPPRLPRPRPRPMLQPRP as the sequence, how does the “shrunken log2 fold change” value read?
Answer: The value was 0.00663.

Question: For RRIRQRPPRLPRPRPRPMMMPRP, which “shrunken log2 fold change” value is on record?
Answer: The value was -0.327.

Question: For RRIRQRPPRLPRPRPRPMMWPRP, which “shrunken log2 fold change” value is on record?
Answer: Its value is 0.0311.

Question: For RRIRQRPPRLPRPRPRPMPIPRP, which “shrunken log2 fold change” value is on record?
Answer: The value was 0.0245.

Question: With RRIRQRPPRLPRPRPRPMQTPRP as the sequence, how does the “shrunken log2 fold change” value read?
Answer: Its value is -0.0319.

Question: For RRIRQRPPRLPRPRPRPMRDPRP, which “shrunken log2 fold change” value is on record?
Answer: Its value is 0.0311.

Question: For RRIRQRPPRLPRPRPRPMRHPRP, which “shrunken log2 fold change” value is on record?
Answer: Its value is 2.84.

Question: RRIRQRPPRLPRPRPRPMRSPRP was tested. Which “shrunken log2 fold change” value did it give?
Answer: Its value is 0.196.

Question: For RRIRQRPPRLPRPRPRPMSWPRP, which “shrunken log2 fold change” value is on record?
Answer: Its value is -0.0294.

Question: How did the “shrunken log2 fold change” value turn out when RRIRQRPPRLPRPRPRPMTDPRP was run?
Answer: Its value is -0.0989.

Question: For RRIRQRPPRLPRPRPRPMTPPRP, which “shrunken log2 fold change” value is on record?
Answer: The value was 0.126.

Question: RRIRQRPPRLPRPRPRPMTVPRP was tested. Which “shrunken log2 fold change” value did it give?
Answer: Its value is -0.00149.

Question: For RRIRQRPPRLPRPRPRPMVFPRP, which “shrunken log2 fold change” value is on record?
Answer: The value was 0.111.

Question: RRIRQRPPRLPRPRPRPMVIPRP was tested. Which “shrunken log2 fold change” value did it give?
Answer: The value was -0.105.

Question: For RRIRQRPPRLPRPRPRPMWLPRP, which “shrunken log2 fold change” value is on record?
Answer: Its value is -0.22.

Question: RRIRQRPPRLPRPRPRPMWWPRP was tested. Which “shrunken log2 fold change” value did it give?
Answer: Its value is 0.128.

Question: Which “shrunken log2 fold change” value does the source give for RRIRQRPPRLPRPRPRPMYWPRP here?
Answer: Its value is 0.0971.

Question: RRIRQRPPRLPRPRPRPNCLPRP was tested. Which “shrunken log2 fold change” value did it give?
Answer: Its value is -0.0533.

Question: For RRIRQRPPRLPRPRPRPNCMPRP, which “shrunken log2 fold change” value is on record?
Answer: Its value is 0.188.

Question: With RRIRQRPPRLPRPRPRPNCQPRP as the sequence, how does the “shrunken log2 fold change” value read?
Answer: The value was -0.055.

Question: RRIRQRPPRLPRPRPRPNCRPRP was tested. Which “shrunken log2 fold change” value did it give?
Answer: Its value is 0.13.

Question: RRIRQRPPRLPRPRPRPNCTPRP was tested. Which “shrunken log2 fold change” value did it give?
Answer: The value was -0.448.

Question: Which “shrunken log2 fold change” value does the source give for RRIRQRPPRLPRPRPRPNFQPRP here?
Answer: Its value is -0.198.

Question: For RRIRQRPPRLPRPRPRPNGHPRP, which “shrunken log2 fold change” value is on record?
Answer: The value was -0.104.

Question: Which “shrunken log2 fold change” value does the source give for RRIRQRPPRLPRPRPRPNHEPRP here?
Answer: Its value is -0.102.

Question: RRIRQRPPRLPRPRPRPNIQPRP was tested. Which “shrunken log2 fold change” value did it give?
Answer: The value was -0.228.

Question: How did the “shrunken log2 fold change” value turn out when RRIRQRPPRLPRPRPRPNIWPRP was run?
Answer: Its value is -0.0842.

Question: For RRIRQRPPRLPRPRPRPNKKPRP, which “shrunken log2 fold change” value is on record?
Answer: The value was -0.0406.

Question: How did the “shrunken log2 fold change” value turn out when RRIRQRPPRLPRPRPRPNKSPRP was run?
Answer: Its value is -0.202.

Question: How did the “shrunken log2 fold change” value turn out when RRIRQRPPRLPRPRPRPNLWPRP was run?
Answer: The value was -0.0933.

Question: For RRIRQRPPRLPRPRPRPNMMPRP, which “shrunken log2 fold change” value is on record?
Answer: Its value is -0.442.

Question: RRIRQRPPRLPRPRPRPNNCPRP was tested. Which “shrunken log2 fold change” value did it give?
Answer: The value was -0.138.

Question: With RRIRQRPPRLPRPRPRPNNDPRP as the sequence, how does the “shrunken log2 fold change” value read?
Answer: Its value is -0.624.

Question: For RRIRQRPPRLPRPRPRPNNKPRP, which “shrunken log2 fold change” value is on record?
Answer: Its value is -0.721.

Question: With RRIRQRPPRLPRPRPRPNPFPRP as the sequence, how does the “shrunken log2 fold change” value read?
Answer: The value was -0.26.

Question: Which “shrunken log2 fold change” value does the source give for RRIRQRPPRLPRPRPRPNPGPRP here?
Answer: Its value is -0.205.

Question: RRIRQRPPRLPRPRPRPNPIPRP was tested. Which “shrunken log2 fold change” value did it give?
Answer: Its value is 0.0989.

Question: For RRIRQRPPRLPRPRPRPNPRPRP, which “shrunken log2 fold change” value is on record?
Answer: Its value is 0.0565.
